This is an account of results in patent US5756291, “Aptamers specific for biomolecules and methods of making” (Gilead Sciences, Inc.).

For orientation: Ki means a dissociation constant, usually derived from enzyme kinetics or from competition with a known ligand. Low readings indicate higher affinity, high ones lower affinity. What is called Kd is the constant that tells how readily two partners part at equilibrium. Higher therefore signals weaker binding.

Data set [1] addresses T1, thrombin (alpha, Factor IIa) (Homo sapiens, UniProt P00734;P00734 P00734:328-363,P00734:364-622). In words: inhibition; 100 nM; no DNA 23 s.
Data set [2] has as its target T1, thrombin (alpha, Factor IIa). In words: inhibition.
For data set [3] the target is unchanged. The experiment in a line: filter.
For a further data set, the target named is trypsin (UniProt P00760 P00760:24-246). In words: EMSA; 500 nM protein, 4 C. (In general: Mobility shift assays separate free from complexed probe on a gel.)
For the next data set, the target named is Factor X (UniProt P00742;P00742 P00742:41-179,P00742:183-488). In words: EMSA; 500 nM protein, 4 C. The conditions noted are these: tags: Haematologic Technologies HCXA-0060.
Another data set deals with serum albumin (Homo sapiens, UniProt P02768 P02768:25-609). The experiment in a line: EMSA; 500 nM protein, 4 C.
The next data set deals with prothrombin (Homo sapiens, UniProt P00734 P00734:44-622). In words: EMSA; 500 nM protein, 4 C.
For another data set, the target named is chymotrypsin (UniProt P00766;P00766;P00766 P00766:1-13,P00766:16-146,P00766:149-245). In words: EMSA; 500 nM protein, 4 C.

Factor X, sequence (P00742 41-179, chain 1 of 2): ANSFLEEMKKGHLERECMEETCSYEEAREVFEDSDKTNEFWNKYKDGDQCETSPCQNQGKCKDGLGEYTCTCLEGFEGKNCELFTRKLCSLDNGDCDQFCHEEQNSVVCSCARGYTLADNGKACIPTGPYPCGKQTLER
Factor X, sequence (P00742 183-488, chain 2 of 2): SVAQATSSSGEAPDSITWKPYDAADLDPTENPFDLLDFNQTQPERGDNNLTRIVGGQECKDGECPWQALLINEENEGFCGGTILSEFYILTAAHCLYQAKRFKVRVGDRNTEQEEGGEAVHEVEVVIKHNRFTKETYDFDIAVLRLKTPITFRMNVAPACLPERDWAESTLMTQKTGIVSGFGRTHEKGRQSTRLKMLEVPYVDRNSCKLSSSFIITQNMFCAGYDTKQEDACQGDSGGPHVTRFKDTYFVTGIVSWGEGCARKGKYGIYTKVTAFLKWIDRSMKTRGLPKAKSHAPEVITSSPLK
trypsin, sequence (P00760 24-246, one chain of several): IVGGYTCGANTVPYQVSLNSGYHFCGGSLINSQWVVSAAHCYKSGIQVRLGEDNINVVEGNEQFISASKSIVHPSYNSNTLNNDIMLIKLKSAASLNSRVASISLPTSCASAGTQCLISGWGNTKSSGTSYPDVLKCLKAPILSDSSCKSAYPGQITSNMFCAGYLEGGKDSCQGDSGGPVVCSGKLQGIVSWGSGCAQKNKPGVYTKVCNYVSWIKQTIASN
serum albumin, sequence (P02768 25-609, one chain of several): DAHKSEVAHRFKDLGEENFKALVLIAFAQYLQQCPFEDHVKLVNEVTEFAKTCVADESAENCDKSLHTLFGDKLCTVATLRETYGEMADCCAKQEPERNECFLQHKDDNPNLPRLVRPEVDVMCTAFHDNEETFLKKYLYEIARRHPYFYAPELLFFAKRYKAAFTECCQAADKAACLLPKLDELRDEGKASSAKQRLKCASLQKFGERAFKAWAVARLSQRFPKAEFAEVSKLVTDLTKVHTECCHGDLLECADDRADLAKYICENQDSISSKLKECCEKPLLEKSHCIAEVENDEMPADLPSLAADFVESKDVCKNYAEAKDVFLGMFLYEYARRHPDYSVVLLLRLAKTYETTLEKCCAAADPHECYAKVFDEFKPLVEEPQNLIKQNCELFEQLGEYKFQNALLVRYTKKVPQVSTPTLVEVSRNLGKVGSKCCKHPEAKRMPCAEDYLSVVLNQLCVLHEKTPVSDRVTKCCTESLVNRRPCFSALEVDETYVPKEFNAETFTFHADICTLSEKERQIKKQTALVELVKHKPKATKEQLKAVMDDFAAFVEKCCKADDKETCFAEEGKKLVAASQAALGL

On to GGTTGGTGTGGTTGG (ssDNA, Z 5-(1-propynyl)-2'-deoxyuridine [3 (Z = 5-(1-propynyl)-2'-deoxyuridine)]) [15-mer propynyl-dU 3], for which the activity in data set [1] was determined as 138 s clot time.
In data set [1], GGTTGGTGTGGTTGG (ssDNA, Z 5-(1-propynyl)-2'-deoxyuridine [4 (Z = 5-(1-propynyl)-2'-deoxyuridine)]) [15-mer propynyl-dU 4] gave an activity of 187 s clot time.
As for GGTTGGUGUGGTTGG (ssDNA, dU at 7 and 9) [15-mer dU7 dU9], affinity in data set [2] was put at a Ki of 15 nM.
The same measure, in the same setting: to GGTTGGTGTGGTUGG (ssDNA, U13 is 5-(1-pentynyl)-2'-deoxyuridine) [15-mer pentynyl-U13] belongs 20 nM.
As for GGTTGGTGTGGTTGG (ssDNA, Z 5-(1-propynyl)-2'-deoxyuridine [7 (Z = 5-(1-propynyl)-2'-deoxyuridine)]) [15-mer propynyl-dU 7], the activity in data set [1] stood at 118 s clot time.
Still for that read-out and setting: with GGTTGGTGTGGTTGG (ssDNA, Z 5-(1-propynyl)-2'-deoxyuridine [9 (Z = 5-(1-propynyl)-2'-deoxyuridine)]) [15-mer propynyl-dU 9] the figure was 120 s clot time.
On to GGTTGGGCTGGTTGGGTTGGG (ssDNA) [21-mer thrombin aptamer], for which, in data set [3], the Kd is roughly 350 nM. The same molecule had a Ki in data set [2] of roughly 100 nM.

B1: pentynyl-dU clone 24 60-mer (ssDNA)
DNA: TAGAATACTCAAGCTTCGACGGTATATAGTATAGTATTGGCAGTTTGGATCCCCGGGTAC
modifications: X 5-pentynyl-dU; T in 3' constant region also 5-pentynyl-dU; T in 5' constant region unmodified [23,25,27,30,32,35,37,38 (X = 5-pentynyl-dU); 44,45,46,50,58 (3' constant region T = 5-pentynyl-dU)]
In turn, B1 gave a Kd in data set [3] of 400 nM. Further, the binding result with trypsin, in the data set with Factor X, in the data set with serum albumin, with prothrombin and in the data set with chymotrypsin was “no binding” each time.
In turn, GGTTGGTGTGGTTGG (ssDNA, Z 5-(1-propynyl)-2'-deoxyuridine [12 (Z = 5-(1-propynyl)-2'-deoxyuridine)]) [15-mer propynyl-dU 12] registered an activity in data set [1] of 129 s clot time.
With GGUTGGTGTGGUTGG (ssDNA, dU at 3 and 12) [15-mer dU3 dU12], the Ki in data set [2] turned out to be 80 nM.
